Laboratory results from patent publication US20250171562A1 (ALK ABELL, published 2025).

B1: CIgG4E1A1(G4S)3 (Fc fusion)
chain 1: GPPCPPCPAPEFLGGPSVFLFPPKPKDTLMISRTPEVTCVVVDVSQEDPEVQFNWYVDGVEVHNAKTKPREEQFNSTYRVVSVLTVLHQDWLNGKEYKCKVSNKGLPSSIEKTISKAKGQPREPQVYTLPPCQEEMTKNQVSLWCLVKGFYPSDIAVEWESNGQPENNYKTTPPVLDSDGSFFLYSRLTVDKSRWQEGNVFSCSVMHEALHNHYTQKSLSLSLGKGGGGSGGGGSGGGGSDVQLQESGGGLVQAGGSLRLSCLASGRTFTTTSGYNMGWFRQAPGKEREFVAGIKWVSGSNRAYAESVKGRFTISRDNAKNTVYLQMNSLKPEDTAVYYCAAATGQSYVPIREYEYVYWGQGTQVTVS
chain 2: GPPCPPCPAPEFLGGPSVFLFPPKPKDTLMISRTPEVTCVVVDVSQEDPEVQFNWYVDGVEVHNAKTKPREEQFNSTYRVVSVLTVLHQDWLNGKEYKCKVSNKGLPSSIEKTISKAKGQPREPQVCTLPPSQEEMTKNQVSLSCAVKGFYPSDIAVEWESNGQPENNYKTTPPVLDSDGSFFLVSRLTVDKSRWQEGNVFSCSVMHEALHNHYTQKSLSLSLGKGGGGSGGGGSGGGGSEVQLLESGGGLVQPGGSLRLSCAASGFTFGNYDMAWVRQAPGKRPEWVSSIDTGGDITHYADSVKGRFTISRDNAKNTLYLQMNSLRPEDTAVYWCATDEEYALGPNEFDYYGQGTLVTVSS
B2: CIgG4E2A1(RS) (Fc fusion)
chain 1: GPPCPPCPAPEFLGGPSVFLFPPKPKDTLMISRTPEVTCVVVDVSQEDPEVQFNWYVDGVEVHNAKTKPREEQFNSTYRVVSVLTVLHQDWLNGKEYKCKVSNKGLPSSIEKTISKAKGQPREPQVYTLPPCQEEMTKNQVSLWCLVKGFYPSDIAVEWESNGQPENNYKTTPPVLDSDGSFFLYSRLTVDKSRWQEGNVFSCSVMHEALHNHYTQKSLSLSLGKRSDVQLQESGGGLVQAGGSLRLSCAASGRTISRYAVGWFRRPPAKEREFIGINWSGGSTTYADSAEGRFIISRDNAKNTVYLQMNSLKPEDTAVYYCAVPSVLVQGGISNPSQYDYWGQGTQVTVS
chain 2: GPPCPPCPAPEFLGGPSVFLFPPKPKDTLMISRTPEVTCVVVDVSQEDPEVQFNWYVDGVEVHNAKTKPREEQFNSTYRVVSVLTVLHQDWLNGKEYKCKVSNKGLPSSIEKTISKAKGQPREPQVCTLPPSQEEMTKNQVSLSCAVKGFYPSDIAVEWESNGQPENNYKTTPPVLDSDGSFFLVSRLTVDKSRWQEGNVFSCSVMHEALHNHYTQKSLSLSLGKRSEVQLLESGGGLVQPGGSLRLSCAASGFTFGNYDMAWVRQAPGKRPEWVSSIDTGGDITHYADSVKGRFTISRDNAKNTLYLQMNSLRPEDTAVYWCATDEEYALGPNEFDYYGQGTLVTVSS
B3: CIgG4E2A1(G4S)1 (Fc fusion)
chain 1: GPPCPPCPAPEFLGGPSVFLFPPKPKDTLMISRTPEVTCVVVDVSQEDPEVQFNWYVDGVEVHNAKTKPREEQFNSTYRVVSVLTVLHQDWLNGKEYKCKVSNKGLPSSIEKTISKAKGQPREPQVYTLPPCQEEMTKNQVSLWCLVKGFYPSDIAVEWESNGQPENNYKTTPPVLDSDGSFFLYSRLTVDKSRWQEGNVFSCSVMHEALHNHYTQKSLSLSLGKGGGGSDVQLQESGGGLVQAGGSLRLSCAASGRTISRYAVGWFRRPPAKEREFIGINWSGGSTTYADSAEGRFIISRDNAKNTVYLQMNSLKPEDTAVYYCAVPSVLVQGGISNPSQYDYWGQGTQVTVS
chain 2: GPPCPPCPAPEFLGGPSVFLFPPKPKDTLMISRTPEVTCVVVDVSQEDPEVQFNWYVDGVEVHNAKTKPREEQFNSTYRVVSVLTVLHQDWLNGKEYKCKVSNKGLPSSIEKTISKAKGQPREPQVCTLPPSQEEMTKNQVSLSCAVKGFYPSDIAVEWESNGQPENNYKTTPPVLDSDGSFFLVSRLTVDKSRWQEGNVFSCSVMHEALHNHYTQKSLSLSLGKGGGGSEVQLLESGGGLVQPGGSLRLSCAASGFTFGNYDMAWVRQAPGKRPEWVSSIDTGGDITHYADSVKGRFTISRDNAKNTLYLQMNSLRPEDTAVYWCATDEEYALGPNEFDYYGQGTLVTVSS
B4: CIgG4E2A1(G4S)2 (Fc fusion)
chain 1: GPPCPPCPAPEFLGGPSVFLFPPKPKDTLMISRTPEVTCVVVDVSQEDPEVQFNWYVDGVEVHNAKTKPREEQFNSTYRVVSVLTVLHQDWLNGKEYKCKVSNKGLPSSIEKTISKAKGQPREPQVYTLPPCQEEMTKNQVSLWCLVKGFYPSDIAVEWESNGQPENNYKTTPPVLDSDGSFFLYSRLTVDKSRWQEGNVFSCSVMHEALHNHYTQKSLSLSLGKGGGGSGGGGSDVQLQESGGGLVQAGGSLRLSCAASGRTISRYAVGWFRRPPAKEREFIGINWSGGSTTYADSAEGRFIISRDNAKNTVYLQMNSLKPEDTAVYYCAVPSVLVQGGISNPSQYDYWGQGTQVTVS
chain 2: GPPCPPCPAPEFLGGPSVFLFPPKPKDTLMISRTPEVTCVVVDVSQEDPEVQFNWYVDGVEVHNAKTKPREEQFNSTYRVVSVLTVLHQDWLNGKEYKCKVSNKGLPSSIEKTISKAKGQPREPQVCTLPPSQEEMTKNQVSLSCAVKGFYPSDIAVEWESNGQPENNYKTTPPVLDSDGSFFLVSRLTVDKSRWQEGNVFSCSVMHEALHNHYTQKSLSLSLGKGGGGSGGGGSEVQLLESGGGLVQPGGSLRLSCAASGFTFGNYDMAWVRQAPGKRPEWVSSIDTGGDITHYADSVKGRFTISRDNAKNTLYLQMNSLRPEDTAVYWCATDEEYALGPNEFDYYGQGTLVTVSS
B5: CIgG4E2A1(G4S)3 (Fc fusion)
chain 1: GPPCPPCPAPEFLGGPSVFLFPPKPKDTLMISRTPEVTCVVVDVSQEDPEVQFNWYVDGVEVHNAKTKPREEQFNSTYRVVSVLTVLHQDWLNGKEYKCKVSNKGLPSSIEKTISKAKGQPREPQVYTLPPCQEEMTKNQVSLWCLVKGFYPSDIAVEWESNGQPENNYKTTPPVLDSDGSFFLYSRLTVDKSRWQEGNVFSCSVMHEALHNHYTQKSLSLSLGKGGGGSGGGGSGGGGSDVQLQESGGGLVQAGGSLRLSCAASGRTISRYAVGWFRRPPAKEREFIGINWSGGSTTYADSAEGRFIISRDNAKNTVYLQMNSLKPEDTAVYYCAVPSVLVQGGISNPSQYDYWGQGTQVTVS
chain 2: B1 chain 2
B6: CIgG4E3A1(RS) (Fc fusion)
chain 1: GPPCPPCPAPEFLGGPSVFLFPPKPKDTLMISRTPEVTCVVVDVSQEDPEVQFNWYVDGVEVHNAKTKPREEQFNSTYRVVSVLTVLHQDWLNGKEYKCKVSNKGLPSSIEKTISKAKGQPREPQVYTLPPCQEEMTKNQVSLWCLVKGFYPSDIAVEWESNGQPENNYKTTPPVLDSDGSFFLYSRLTVDKSRWQEGNVFSCSVMHEALHNHYTQKSLSLSLGKRSDVQLQESGGGLVQAGGSLRLACAASGRTLSSYVVSWFRQAPGKERKFVAAITWSGLSTTYLDSVQGRFTISRDNTKDTVYLQMNSLKPQDTAIYYCAAGPNIPSILRTRESEYAYWGQGTQVTVS
chain 2: B2 chain 2
B7: CIgG4E3A1(G4S)1 (Fc fusion)
chain 1: GPPCPPCPAPEFLGGPSVFLFPPKPKDTLMISRTPEVTCVVVDVSQEDPEVQFNWYVDGVEVHNAKTKPREEQFNSTYRVVSVLTVLHQDWLNGKEYKCKVSNKGLPSSIEKTISKAKGQPREPQVYTLPPCQEEMTKNQVSLWCLVKGFYPSDIAVEWESNGQPENNYKTTPPVLDSDGSFFLYSRLTVDKSRWQEGNVFSCSVMHEALHNHYTQKSLSLSLGKGGGGSDVQLQESGGGLVQAGGSLRLACAASGRTLSSYVVSWFRQAPGKERKFVAAITWSGLSTTYLDSVQGRFTISRDNTKDTVYLQMNSLKPQDTAIYYCAAGPNIPSILRTRESEYAYWGQGTQVTVS
chain 2: B3 chain 2
B8: CIgG4E3A1(G4S)2 (Fc fusion)
chain 1: GPPCPPCPAPEFLGGPSVFLFPPKPKDTLMISRTPEVTCVVVDVSQEDPEVQFNWYVDGVEVHNAKTKPREEQFNSTYRVVSVLTVLHQDWLNGKEYKCKVSNKGLPSSIEKTISKAKGQPREPQVYTLPPCQEEMTKNQVSLWCLVKGFYPSDIAVEWESNGQPENNYKTTPPVLDSDGSFFLYSRLTVDKSRWQEGNVFSCSVMHEALHNHYTQKSLSLSLGKGGGGSGGGGSDVQLQESGGGLVQAGGSLRLACAASGRTLSSYVVSWFRQAPGKERKFVAAITWSGLSTTYLDSVQGRFTISRDNTKDTVYLQMNSLKPQDTAIYYCAAGPNIPSILRTRESEYAYWGQGTQVTVS
chain 2: B4 chain 2

Biological target: T1, recombinant human IgE (human, UniProt P01854-1 1-428)
T1 construct: made in-house (ALK); preloaded on immobilised FcεRIα in the displacement ELISA
T1 sequence (P01854 other isoform, or with tags, fused parts or gaps): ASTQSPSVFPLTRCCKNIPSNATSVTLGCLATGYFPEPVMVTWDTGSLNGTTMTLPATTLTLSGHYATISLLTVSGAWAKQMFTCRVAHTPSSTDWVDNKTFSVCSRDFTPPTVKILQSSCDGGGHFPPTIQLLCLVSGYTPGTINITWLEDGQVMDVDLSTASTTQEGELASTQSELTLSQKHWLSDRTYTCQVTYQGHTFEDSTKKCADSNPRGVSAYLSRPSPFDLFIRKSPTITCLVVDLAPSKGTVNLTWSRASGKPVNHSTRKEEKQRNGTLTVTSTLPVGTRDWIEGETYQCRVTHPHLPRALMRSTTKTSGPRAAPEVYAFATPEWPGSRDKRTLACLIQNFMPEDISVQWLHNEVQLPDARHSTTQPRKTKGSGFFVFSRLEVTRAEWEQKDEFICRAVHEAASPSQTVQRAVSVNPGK
Experiment: IgE-FcεRIα displacement ELISA
Outline: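 sdAbs at pM–μM were incubated 1 h on preformed complexes of 13 ng/ml recombinant human IgE with avi-tag-biotinylated human FcεRIα captured on streptavidin.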

| Binder | EC50 [nM] | Max effect [%] |
| --- | --- | --- |
| B1 | 9 | > 95 |
| B2 |  | 25 |
| B3 | 1000 | 50 |
| B4 | 410 | 65 |
| B5 | 160 | 75 |
| B6 |  | 30 |
| B7 | 130 | 85 |
| B8 | 50 | > 95 |
